Patent US20240116985A1 (published 2024)
Starred links: 1 amine or outer side, 2 acyl side, 3 side chain; linkers in the order of their positions; H or OH if unused. Positions of bridges follow the written chain, without caps; N, C: chain ends. Non-standard residues stand in square brackets, D forms with d. Primed or numbered codes have the meaning given here. *: point of attachment. PyrS2″ = (S)-3-amino-1-((pent-4-en-1-yloxy)carbonyl)pyrrolidine-3-carboxylic acid (stapling residue), C=CCCCOC(=O)N1CC[C@@](N[*:1])(C(=O)[*:2])C1; B5(4) = 2,2-bis(4-pentenyl)glycine = 2-amino-2-(pent-4-en-1-yl)hept-6-enoic acid (stitching residue), C=CCCCC(CCCC=C)(N[*:1])C(=O)[*:2]; TfeGA = (S)-2-amino-3-((carboxymethyl)(2,2,2-trifluoroethyl)amino)propanoic acid, O=C([C@H](CN(CC(=O)[*:3])CC(F)(F)F)N[*:1])[*:2]; B5(22) = 2-amino-2-(pent-4-en-1-yl)hept-6-enoic acid (two alkene side chains), C=CCCCC(CCCC=C)(N[*:1])C(=O)[*:2]; B5(3) = 2,2-bis(4-pentenyl)glycine (stitching residue), C=CCCCC(CCCC=C)(N[*:1])C(=O)[*:2]; 2F3MeF = Cc1cccc(C[C@H](N[*:1])C(=O)[*:2])c1F; Phe(3-Cl) = N[C@@H](Cc1cccc(Cl)c1)C(=O)O; Phe(2-Cl) = N[C@@H](Cc1ccccc1Cl)C(=O)O; Bta = N[C@@H](Cc1csc2ccccc12)C(=O)O; αAllylPro = C=CC[C@@]1(C(=O)O)CCCN1; tBuAla = CC(C)(C)C[C@H](N)C(=O)O; 3Thi = N[C@@H](Cc1ccsc1)C(=O)O; S8 = C=CCCCCCC[C@](C)(N)C(=O)O; Ms = CS(=O)(=O)*

Legend:
[1] = target: T1, B-cat-Halo (beta-catenin HaloTag NanoBRET construct expressed in HEK293 cells) (UniProt P35222 1-781); test: cell-based or functional assay
T1 sequence (looked up): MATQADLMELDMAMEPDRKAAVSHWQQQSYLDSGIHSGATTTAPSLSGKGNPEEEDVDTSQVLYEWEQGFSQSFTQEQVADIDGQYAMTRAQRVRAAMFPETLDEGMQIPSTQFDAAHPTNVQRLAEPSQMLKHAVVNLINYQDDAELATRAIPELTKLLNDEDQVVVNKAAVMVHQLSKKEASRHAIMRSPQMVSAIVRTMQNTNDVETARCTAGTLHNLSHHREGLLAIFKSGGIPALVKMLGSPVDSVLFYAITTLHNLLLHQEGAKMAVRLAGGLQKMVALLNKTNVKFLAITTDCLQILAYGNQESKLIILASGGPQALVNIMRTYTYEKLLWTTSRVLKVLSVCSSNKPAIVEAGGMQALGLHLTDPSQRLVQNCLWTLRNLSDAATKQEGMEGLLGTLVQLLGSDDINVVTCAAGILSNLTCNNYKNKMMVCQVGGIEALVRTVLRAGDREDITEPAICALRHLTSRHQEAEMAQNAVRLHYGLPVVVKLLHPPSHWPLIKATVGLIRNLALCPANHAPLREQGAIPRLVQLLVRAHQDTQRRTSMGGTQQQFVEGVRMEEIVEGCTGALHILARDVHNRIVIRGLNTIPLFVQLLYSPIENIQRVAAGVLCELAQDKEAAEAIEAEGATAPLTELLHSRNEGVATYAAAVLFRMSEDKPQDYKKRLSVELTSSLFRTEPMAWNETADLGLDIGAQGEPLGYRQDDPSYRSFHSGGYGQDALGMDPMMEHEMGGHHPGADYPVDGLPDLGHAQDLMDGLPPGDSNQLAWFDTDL

[2] = target: T2, full-length beta-Catenin (Uniprot ID P35222) (Homo sapiens (Human), UniProt P35222 1-781); test: fluorescence polarization competition; full-length beta-catenin with 5FAM-labeled TCF4 residues 10-53 probe as competitor
T2 construct: also called bCat; B-Catenin
T2 sequence: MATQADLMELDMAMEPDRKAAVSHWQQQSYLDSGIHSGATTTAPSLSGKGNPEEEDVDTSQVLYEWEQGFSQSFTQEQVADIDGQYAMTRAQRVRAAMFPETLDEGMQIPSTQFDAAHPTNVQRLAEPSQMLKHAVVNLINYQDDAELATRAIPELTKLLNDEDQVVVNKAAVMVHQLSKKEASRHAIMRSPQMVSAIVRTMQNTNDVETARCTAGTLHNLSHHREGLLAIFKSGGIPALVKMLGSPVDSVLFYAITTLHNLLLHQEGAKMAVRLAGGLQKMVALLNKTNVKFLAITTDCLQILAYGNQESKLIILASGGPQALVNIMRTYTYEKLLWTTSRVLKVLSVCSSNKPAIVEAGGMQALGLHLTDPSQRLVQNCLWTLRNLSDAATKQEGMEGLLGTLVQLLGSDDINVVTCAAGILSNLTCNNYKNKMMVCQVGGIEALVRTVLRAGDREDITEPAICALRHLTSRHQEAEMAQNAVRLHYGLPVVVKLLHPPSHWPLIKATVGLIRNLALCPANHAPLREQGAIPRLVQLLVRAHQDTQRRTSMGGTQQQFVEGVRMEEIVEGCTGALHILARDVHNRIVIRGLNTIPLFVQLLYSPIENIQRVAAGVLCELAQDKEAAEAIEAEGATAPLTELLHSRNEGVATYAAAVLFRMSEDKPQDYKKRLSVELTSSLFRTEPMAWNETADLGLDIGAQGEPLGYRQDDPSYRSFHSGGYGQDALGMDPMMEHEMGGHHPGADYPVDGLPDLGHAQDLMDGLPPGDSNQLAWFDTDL
Experimental: The plate was incubated protected from light for 60 minutes at 20° C. prior to read. Reads were performed on a CLARIOstar plate reader (BMG Labtech) in duplicate, and data were fitted to a 1:1 binding model with hill slope using an in-house script. All provided concentrations are final concentrations.

[3] = target: T3, B-cat-Halo (beta-catenin HaloTag fusion expressed in HEK293 cells) (UniProt P35222 1-781); test: cell-based or functional assay
T3 sequence (looked up): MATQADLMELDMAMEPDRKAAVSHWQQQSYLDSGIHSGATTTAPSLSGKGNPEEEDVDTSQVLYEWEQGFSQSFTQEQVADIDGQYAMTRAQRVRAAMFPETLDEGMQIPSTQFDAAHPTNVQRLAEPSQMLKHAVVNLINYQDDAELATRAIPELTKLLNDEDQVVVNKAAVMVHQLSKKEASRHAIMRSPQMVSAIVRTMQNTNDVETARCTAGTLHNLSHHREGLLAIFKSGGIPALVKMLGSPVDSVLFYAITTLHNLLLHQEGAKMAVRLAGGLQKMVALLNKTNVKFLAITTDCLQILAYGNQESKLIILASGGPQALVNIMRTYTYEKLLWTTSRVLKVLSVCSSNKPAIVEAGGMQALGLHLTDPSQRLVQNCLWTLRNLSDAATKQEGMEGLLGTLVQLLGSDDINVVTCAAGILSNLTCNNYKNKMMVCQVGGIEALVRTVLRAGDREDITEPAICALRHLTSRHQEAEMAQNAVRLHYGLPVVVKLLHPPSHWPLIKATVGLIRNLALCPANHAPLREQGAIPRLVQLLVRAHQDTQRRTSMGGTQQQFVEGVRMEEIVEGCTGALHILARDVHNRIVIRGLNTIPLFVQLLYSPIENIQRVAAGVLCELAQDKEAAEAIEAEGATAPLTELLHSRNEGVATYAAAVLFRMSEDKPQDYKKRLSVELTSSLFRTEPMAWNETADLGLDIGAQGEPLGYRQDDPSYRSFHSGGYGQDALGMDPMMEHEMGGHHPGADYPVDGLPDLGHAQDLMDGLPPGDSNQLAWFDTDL

[4] = target: T4, B-cat-Halo (beta-catenin HaloTag NanoBRET construct expressed in HEK293 cells) (UniProt P35222 1-781, HaloTag NanoBRET 618 Ligand bound to the HaloTag); test: cell-based or functional assay
T4 sequence (looked up): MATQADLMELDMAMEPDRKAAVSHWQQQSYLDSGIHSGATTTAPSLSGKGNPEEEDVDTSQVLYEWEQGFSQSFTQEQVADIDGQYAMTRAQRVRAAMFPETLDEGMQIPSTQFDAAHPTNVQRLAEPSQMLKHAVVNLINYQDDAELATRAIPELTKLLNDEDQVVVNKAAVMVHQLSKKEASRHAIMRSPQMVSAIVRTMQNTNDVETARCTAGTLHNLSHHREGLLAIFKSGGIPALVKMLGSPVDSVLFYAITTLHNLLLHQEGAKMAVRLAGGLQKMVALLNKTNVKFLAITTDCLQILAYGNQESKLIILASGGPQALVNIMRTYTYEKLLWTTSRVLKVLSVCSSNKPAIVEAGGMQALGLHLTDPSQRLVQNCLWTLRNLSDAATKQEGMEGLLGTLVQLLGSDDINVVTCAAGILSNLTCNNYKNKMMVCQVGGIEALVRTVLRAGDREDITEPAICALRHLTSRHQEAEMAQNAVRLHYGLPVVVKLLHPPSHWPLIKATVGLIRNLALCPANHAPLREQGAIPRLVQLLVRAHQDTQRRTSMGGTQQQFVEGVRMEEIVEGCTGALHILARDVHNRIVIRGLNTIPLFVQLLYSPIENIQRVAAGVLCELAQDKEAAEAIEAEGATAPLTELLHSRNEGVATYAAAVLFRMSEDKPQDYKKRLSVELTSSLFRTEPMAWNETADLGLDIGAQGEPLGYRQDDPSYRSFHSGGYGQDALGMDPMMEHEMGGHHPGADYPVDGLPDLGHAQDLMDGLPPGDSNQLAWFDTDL

[5] = target: T5, beta-catenin in DLD1 TCF/LEF reporter cells (UniProt P35222 1-781); test: cell-based or functional assay
T5 sequence (looked up): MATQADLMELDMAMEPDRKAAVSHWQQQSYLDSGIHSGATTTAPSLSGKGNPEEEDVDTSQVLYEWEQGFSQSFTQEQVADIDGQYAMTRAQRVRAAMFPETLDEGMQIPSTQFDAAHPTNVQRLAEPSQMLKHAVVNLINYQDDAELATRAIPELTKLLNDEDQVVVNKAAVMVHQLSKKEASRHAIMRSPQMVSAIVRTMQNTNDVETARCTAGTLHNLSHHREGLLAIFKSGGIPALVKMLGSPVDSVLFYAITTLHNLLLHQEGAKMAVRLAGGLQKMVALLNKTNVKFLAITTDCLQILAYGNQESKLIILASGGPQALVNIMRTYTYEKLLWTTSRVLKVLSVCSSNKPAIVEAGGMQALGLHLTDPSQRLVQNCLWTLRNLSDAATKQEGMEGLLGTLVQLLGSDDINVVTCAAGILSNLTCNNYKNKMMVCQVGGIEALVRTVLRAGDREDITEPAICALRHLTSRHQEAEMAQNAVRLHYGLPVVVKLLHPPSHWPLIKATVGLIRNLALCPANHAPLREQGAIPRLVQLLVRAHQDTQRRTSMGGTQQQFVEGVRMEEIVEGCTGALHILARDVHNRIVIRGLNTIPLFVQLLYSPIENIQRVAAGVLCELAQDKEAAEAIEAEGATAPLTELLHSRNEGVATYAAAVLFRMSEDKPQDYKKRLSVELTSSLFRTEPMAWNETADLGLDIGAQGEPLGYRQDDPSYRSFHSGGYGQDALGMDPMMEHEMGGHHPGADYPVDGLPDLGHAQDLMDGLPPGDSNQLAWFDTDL

B-cat-Halo = target: T6, B-cat-Halo (UniProt P35222 1-781); test: cell-based or functional assay
T6 sequence (looked up): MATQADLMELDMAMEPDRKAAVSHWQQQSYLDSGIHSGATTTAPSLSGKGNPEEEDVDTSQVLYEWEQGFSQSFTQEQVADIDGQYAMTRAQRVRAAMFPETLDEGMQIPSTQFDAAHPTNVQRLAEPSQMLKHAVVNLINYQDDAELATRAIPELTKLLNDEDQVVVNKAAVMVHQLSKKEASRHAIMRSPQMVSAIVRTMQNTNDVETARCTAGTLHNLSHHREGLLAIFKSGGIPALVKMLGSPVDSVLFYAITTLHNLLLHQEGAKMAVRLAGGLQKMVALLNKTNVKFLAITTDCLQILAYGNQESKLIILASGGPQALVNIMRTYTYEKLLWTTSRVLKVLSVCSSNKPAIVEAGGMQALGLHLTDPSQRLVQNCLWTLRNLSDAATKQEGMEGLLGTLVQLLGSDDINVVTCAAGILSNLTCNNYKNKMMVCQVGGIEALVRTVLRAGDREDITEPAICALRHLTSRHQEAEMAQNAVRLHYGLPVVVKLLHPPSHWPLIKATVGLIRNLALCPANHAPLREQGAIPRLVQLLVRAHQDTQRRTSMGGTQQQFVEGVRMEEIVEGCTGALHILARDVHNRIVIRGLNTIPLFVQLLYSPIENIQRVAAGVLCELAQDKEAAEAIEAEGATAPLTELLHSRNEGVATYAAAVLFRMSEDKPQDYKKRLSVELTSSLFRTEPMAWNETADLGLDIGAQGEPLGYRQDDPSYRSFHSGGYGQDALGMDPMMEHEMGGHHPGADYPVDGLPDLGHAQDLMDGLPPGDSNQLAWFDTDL

B1: I-550 (peptide)
peptide: XDIXDDAAFNXFXQ
modifications: not fully specified; N-terminal Ac; PL3 at 1; B5 at 4; S8 at 11; 2OMeF at 12; BztA at 13; C-terminal NH2; staples PL3(1)-B5(4) and B5(4)-S8(11) by olefin metathesis
NanoBRET Abs IC50 [1]: 21.4 µM
IC50 [2]: 0.03 µM

Ac-[αAllylPro]D[tBuAla][B5(3)]NDAAFL[PyrS2″][3Thi][Bta]Q-NH2 (staple 1-4, 4-11) [Ac-PL3-Asp-Npg-B5-Asn-Asp-Ala-Ala-Phe-Leu-PyrS2-3Thi-BztA-Gln-NH2]
NanoBRET Abs IC50 [3]: 7.5 µM

Ac-[αAllylPro]D[tBuAla][B5(22)]D[TfeGA]AAFN[S8][Phe(3-Cl)][Bta]Q-NH2 (staple 1-4, 4-11) [I-933]
NanoBRET Abs IC50 [4]: 22.2 µM

Ac-[αAllylPro]D[tBuAla][B5(3)]NDAAFN[PyrS2″][3Thi][Bta]Q-NH2 (staple 1-4, 4-11) [Ac-PL3-Asp-Npg-B5-Asn-Asp-Ala-Ala-Phe-Asn-PyrS2-3Thi-BztA-Gln-NH2]
NanoBRET Abs IC50 [3]: 27.8 µM

Ac-[αAllylPro]D[tBuAla][B5(22)]D[TfeGA]AAFN[S8][2F3MeF][Bta]Q-NH2 (staple 1-4, 4-11) [I-934]
NanoBRET Abs IC50 [4]: 19.2 µM

Ms-[αAllylPro]D[tBuAla][B5(3)]D[TfeGA]AAFN[PyrS2″][3Thi][Bta]Q-NH2 (staple 1-4, 4-11) [MeSO2-PL3-Asp-Npg-B5-Asp-TfeGA-Ala-Ala-Phe-Asn-PyrS2-3Thi-BztA-Gln-NH2]
NanoBRET Abs IC50 [3]: > 20 µM

Ac-[αAllylPro]D[tBuAla][B5(4)]DDAAFT[PyrS2″][Phe(2-Cl)][Bta]S-NHEt (staple 1-4, 4-11) [I-1244]
DLD1 reporter assay Abs IC50 [5]: 13.9 µM
NanoBRET Abs IC50 (B-cat-Halo): 17.7 µM

Ac-[αAllylPro]N[tBuAla][B5(3)]DDAAFN[PyrS2″][3Thi][Bta]Q-NH2 (staple 1-4, 4-11) [Ac-PL3-Asn-Npg-B5-Asp-Asp-Ala-Ala-Phe-Asn-PyrS2-3Thi-BztA-Gln-NH2]
NanoBRET Abs IC50 [3]: 17.3 µM
